Laboratory results as given in publication PMC8567202, “Phosphoinositide-binding activity of Smad2 is essential for its function in TGF-β signaling” (The Journal of Biological Chemistry, 2021).
Square brackets hold non-standard residues; d marks the D form. Ends that are not written are not given here. fluorescein = fluorescein-6-aminohexanoyl (F-Ahx); pS = N[C@@H](COP(=O)(O)O)C(=O)O; Ahx = NCCCCCC(=O)O

Tests used:
Conditions in all cases: both partners purified
Smad2-Y426A = target: T1, Smad2-Y426A (UniProt Q62432 1-467, Y426A); experiment: fluorescence polarisation; fluorescence anisotropy; F-Ahx-labelled peptide fixed (2.5 μM in the methods, 2.5 nM in the legend), Smad2 WT or mutant varied (0-250 μM in the methods, 0-150 μM in the legend); 20 mM Tris pH 7.9, 160 mM NaCl; 10 min incubation
T1 construct: Smad2, full length, point mutant Y426A; source: E. coli BL21 RIL codon plus, purified (Ni-NTA)

Smad2-W422A = target: T2, Smad2-W422A (UniProt Q62432 1-467, W422A); experiment: as above
T2 construct: Smad2, full length, point mutant W422A; source: E. coli BL21 RIL codon plus, purified (Ni-NTA)

[1] = target: T3, Smad2 wild type, full length (UniProt Q62432 1-467); experiment: as above
T3 construct: Smad2, full length (FL), bacterially expressed from pET-30a; also called Smad2 WT; Smad2-FL; source: E. coli BL21 RIL codon plus, purified (Ni-NTA)

Smad2-K420A = target: T4, Smad2-K420A (UniProt Q62432 1-467, K420A); experiment: as above
T4 construct: Smad2, full length, point mutant K420A; source: E. coli BL21 RIL codon plus, purified (Ni-NTA)

Smad2-R427A/R428A = target: T5, Smad2-R427A/R428A (UniProt Q62432 1-467, R427A | R428A); experiment: as above
T5 construct: Smad2, full length, double mutant R427A/R428A; also called RR/AA; source: E. coli BL21 RIL codon plus, purified (Ni-NTA)

Smad2-E425K = target: T6, Smad2-E425K (UniProt Q62432 1-467, E425K); experiment: as above
T6 construct: Smad2, full length, charge-reversal point mutant E425K; source: E. coli BL21 RIL codon plus, purified (Ni-NTA)

[2] = target: T3, Smad2 wild type, full length; experiment: as above; remark: listed apart in the source
[3] = target: T3, Smad2 wild type, full length; experiment: fluorescence polarisation; fluorescence anisotropy as a1, in the presence of 50 μM POPC/POPS/PI(4,5)P2 (77:20:3) LUVs

T3 sequence (Q62432 whole entry): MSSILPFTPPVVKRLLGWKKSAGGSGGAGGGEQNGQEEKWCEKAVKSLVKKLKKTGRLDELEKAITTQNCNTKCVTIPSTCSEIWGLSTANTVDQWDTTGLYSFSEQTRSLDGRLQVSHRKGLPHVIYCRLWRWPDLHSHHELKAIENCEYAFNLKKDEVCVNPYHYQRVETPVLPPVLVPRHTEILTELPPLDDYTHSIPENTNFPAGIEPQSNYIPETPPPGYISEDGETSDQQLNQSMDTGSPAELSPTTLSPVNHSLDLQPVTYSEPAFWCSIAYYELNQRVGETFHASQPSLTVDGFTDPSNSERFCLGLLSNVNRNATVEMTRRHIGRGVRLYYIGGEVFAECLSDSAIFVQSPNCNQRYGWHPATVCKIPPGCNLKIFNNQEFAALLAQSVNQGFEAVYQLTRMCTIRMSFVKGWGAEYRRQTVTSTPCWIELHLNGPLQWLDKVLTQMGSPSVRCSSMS
T1 sequence (Q62432 whole entry Y426A): as the sequence (Q62432 whole entry) above, with Y426A counted along it
T5 sequence (Q62432 whole entry R427A/R428A): as the sequence (Q62432 whole entry) above, with R427A, R428A counted along it
T2 sequence (Q62432 whole entry W422A): as the sequence (Q62432 whole entry) above, with W422A counted along it
T6 sequence (Q62432 whole entry E425K): as the sequence (Q62432 whole entry) above, with E425K counted along it
T4 sequence (Q62432 whole entry K420A): as the sequence (Q62432 whole entry) above, with K420A counted along it

Kd (Smad2-Y426A) [µM] | Kd (Smad2-W422A) [µM] | Kd [1] [µM] | Kd (Smad2-K420A) [µM] | Kd (Smad2-R427A/R428A) [µM] | Kd (Smad2-E425K) [µM] | Kd [2] [µM] | Kd [3] [µM] | Binder
20 | 21 | 20 | 200 | 44 | 8 | 0.02 ± 0.006 | 0.06 ± 0.007 | {fluorescein-Ahx}-YDMTT[pS]G[pS]G[pS]GLPLL (type I TGF-β receptor (TβRI), GS region, triply phosphorylated; also called GS peptide; TβRI peptide; source: synthetic peptide; bought: AlanScientific) [TβRI GS region peptide (F-Ahx-YDMTTpSGpSGpSGLPLL)]
70 | 67 | 66 | 100 | 75 | 55 | – | – | {fluorescein-Ahx}-ADNKDNGT (type I TGF-β receptor (TβRI), L45 loop; also called L45 peptide; L45 loop peptide; source: synthetic peptide; bought: AlanScientific) [TβRI L45 loop region peptide (F-Ahx-ADNKDNGT)]
